The conditions of series [1]: cited from earlier work.
Series [2] in a line: Stability in the final formulation by analytical rad-HPLC. It is filed as physicochemical. To be noted: final formulation 10/30/60 v/v/v ethanol/1.0 M sodium acetate/saline, room temperature, mean ± SD, n = 4.
A short description of series [3]: in vivo. Also noted: species or system mouse. To be noted: CD1, mouse, iv, total radioactivity.
In a further series the test system is healthy CD1 mice. In words: in vivo. Also noted: species or system mouse. As to conditions: mouse.
Series [4] can be described thus: in vivo. To be noted: CD1, mouse, iv, total radioactivity.
Series [5] is described as follows: in vivo. Details: species or system mouse. As to conditions: CD1, mouse, iv, total radioactivity. This is another data set of the same source.
The test system of series [6] is CD1 mice with myocardial infarction. In words: in vivo. Also noted: species or system mouse. As to conditions: mouse.
Series [7] shares this test system. To be noted: mouse, in vivo.

The values below come from paper PMC12987686 (RSC pharmaceutics, 2025).

Peptide text beside a SMILES is read from it.

Take `CC(C)(C)n1ncc(OCc2ccc(COCC[18F])cc2)c(Cl)c1=O` [[^18F]F-flurpiridaz]: the first-pass extraction fraction in series [1] was 94%.
On to `CC(C)C[C@H](NC(=O)[C@H](Cc1c[nH]cn1)NC(=O)[C@H](Cc1c[nH]c2ccccc12)NC(=O)[C@@H]1CCCN1C(=O)[C@H](C)NC(=O)CN1CCN(CC(=O)O)CCN(CC(=O)O)CC1)C(=O)N[C@@H](CO)C(=O)N[C@@H](CO)C(=O)N[C@@H](CCC(N)=O)C(=O)N[C@@H](Cc1ccc(O)cc1)C(=O)N[C@@H](CO)C(=O)N[C@@H](CCCNC(=N)N)C(=O)N[C@H](C(=O)O)[C@@H](C)O` [[^68Ga]Ga-NOTA-CTP, metal not drawn] (HELM PEPTIDE1{[O=C(O)CN1CCN(CC(=O)O)CCN(CC(=O)[*:2])CC1].A.P.W.H.L.S.S.Q.Y.S.R.T}$$$$V2.0; N-terminus and C-terminus assumed), for which the “radiochemical purity in the formulation” value was found to be 98.78 ± 1.08% in series [2] (0 min post-synthesis) and 92.52 ± 3.66% in series [2] (2 h post-synthesis). The SUV at 1 h in the series “in vivo [3]” (2.29 MBq, SUV heart) is 0.04 ± 0.04 SUV; in the series “in vivo [3]” (2.29 MBq, SUV kidneys), 0.92 ± 0.68 SUV; in “in vivo [3]” (2.29 MBq, SUV liver), 0.69 ± 0.32 SUV; in the series “in vivo [3]” (2.29 MBq, SUV muscle), 0.18 ± 0.13 SUV; in “in vivo [3]” (2.29 MBq, SUV urinary bladder) it was 10.6 ± 6.1 SUV. Besides, the SUV at 2 h in “in vivo [3]” (2.29 MBq, SUV heart) worked out at 0.02 ± 0.01 SUV; in the series “in vivo [3]” (2.29 MBq, SUV kidneys) it was 0.1 SUV; in the series “in vivo [3]” (2.29 MBq, SUV liver), 0.14 SUV; in the series “in vivo [3]” (2.29 MBq, SUV muscle), 0.19 ± 0.18 SUV; in “in vivo [3]” (SUV urinary bladder), 9.02 ± 8.59 SUV; in “in vivo [4]” (SUV Cecum) it was 2.36 ± 2.24 SUV. Moreover, the SUV at 2 h in the series “in vivo [4]” (SUV Heart) was 0.02 ± 0.006 SUV; in “in vivo [4]” (SUV Lung) it was 0.04 ± 0.02 SUV; in “in vivo [4]” (SUV Pancreas), 0.05 ± 0.06 SUV; in the series “in vivo [5]” (2.29 MBq, SUV heart), 0.03 ± 0.02 SUV; in “in vivo [5]” (SUV Cecum), 2.28 ± 3.64 SUV; in “in vivo [5]” (SUV Lung), 0.04 ± 0.04 SUV. In the series “in vivo [5]” (SUV Pancreas), the SUV at 2 h worked out at 0.05 ± 0.04 SUV. In addition, the SUV in the series “in vivo [3]” (2.29 MBq, SUV kidneys) came out at 2.64 ± 0.89 SUV; in “in vivo [3]” (2.29 MBq, SUV liver), 1.42 ± 0.49 SUV; in the series “in vivo [3]” (2.29 MBq, SUV muscle), 0.36 ± 0.12 SUV; in “in vivo [3]” (2.29 MBq, SUV urinary bladder), 7.51 ± 3.49 SUV. Further, the “SUV in left ventricle (LV) vs right ventricle (RV)” value in the series with healthy CD1 mice is listed as “SUV in LV was lower than the RV”. The “time of clearance from the blood” value (with healthy CD1 mice; in series [7]) was not above 30 min throughout. In addition, in series [6], the “SUV Heart” value was determined as 0.03 ± 0.02.
In the case of `[15OH2]` [^15O-water], the first-pass extraction fraction in series [1] was ~ 100%.
Consider `[82Rb]` [^82Rb], for which the first-pass extraction fraction in series [1] is ~ 65%.
